Consider one substance from paper doi:10.1101/2021.09.06.458672.

This assay addresses plectasin variant D9S Q14K V36L (PPI42). Put plainly: dynamic light scattering.

In the case of “plectasin variant D9S Q14K V36L (PPI42) (peptide)”, the mass fraction of medium sized oligomers and protein fibrils is below 2.5 % mass.
